From patent US20040092720A1 (US Dept. of Health and Human Services, published 2004)

Target: T1, recombinant human IL-6 (human, UniProt P05231 30-212, labeled with radioactive iodine)
T1 construct: Labeled probe in solution, added to wells that carry the synthetic peptides; also called IL-6 ligand; Interleukin-6
Assay: radioiodinated IL-6 on peptide array; experiment D11-D57
Procedure: Synthetic peptide arrays were constructed in 96-well microtiter plates in accordance with the method set forth in WO 91/02714 (Saxinger), and used to test the binding of recombinant human IL-6 that had been labeled with radioactive iodine (radiolabeling by standard methods). After incubating the radiolabeled IL-6 ligand in a well with each synthetic peptide, a washing step was performed to remove unbound label, and the relative level of radioactivity remaining in each well of the plate was evaluated to determine the relative affinity of each peptide for IL-6 ligand.

Binder	Counts/minute bound (counts/minute)	Counts/minute bound [counts/minute]
LRFKKT [Peptide D42]	1960	–
GGSLAFGTLLCIAIVLRFKKA (alanine-scan variant of the domain IV 21-mer) [Peptide D44]	–	21400
GGSLAFGTLLCIAIVLRFKAT (alanine-scan variant of the domain IV 21-mer) [Peptide D45]	–	28600
GGSLAFGTLLCIAIVLRFAKT (alanine-scan variant of the domain IV 21-mer) [Peptide D46]	–	30800
GGSLAFGTLLCIAIVLRAKKT (alanine-scan variant of the domain IV 21-mer) [Peptide D47]	–	20900
GGSLAFGTLLCIAIVLAFKKT (alanine-scan variant of the domain IV 21-mer) [Peptide D48]	–	29400
GGSLAFGTLLCIAIVARFKKT (alanine-scan variant of the domain IV 21-mer) [Peptide D49]	–	22100
GGSLAFGTLLCIAIALRFKKT (alanine-scan variant of the domain IV 21-mer) [Peptide D50]	–	17900
GGSLAFGTLLCIAAVLRFKKT (alanine-scan variant of the domain IV 21-mer) [Peptide D51]	–	28500
GGSLAFGTLLCAAIVLRFKKT (alanine-scan variant of the domain IV 21-mer) [Peptide D52]	–	27700
GGSLAFGTLLAIAIVLRFKKT (alanine-scan variant of the domain IV 21-mer) [Peptide D53]	–	34900
GGSLAFGTLACIAIVLRFKKT (alanine-scan variant of the domain IV 21-mer) [Peptide D54]	–	22000
GGSLAFGTALCIAIVLRFKKT (alanine-scan variant of the domain IV 21-mer) [Peptide D55]	–	22100
GGSLAFGALLCIAIVLRFKKT (alanine-scan variant of the domain IV 21-mer) [Peptide D56]	–	23000
GGSLAFATLLCIAIVLRFKKT (alanine-scan variant of the domain IV 21-mer) [Peptide D57]	–	22300
GGSLAFGTLLCIAIVLRFKK [Peptide D12]	–	18100
GGSLAFGTLLCIAIVLRFK [Peptide D13]	–	16100
GGSLAFGTLLCIAIVLRF [Peptide D14]	–	7690
GGSLAFGTLLCIAIVLR [Peptide D15]	–	3950

Target: T1, recombinant human IL-6
Assay: radioiodinated IL-6 on peptide array

Binder	Counts/minute bound [counts/minute]
KKYILEWCVLSDKAPCITDWQQED [Peptide E46]	1710
QQEDGTVHRTYLRGNLAESKCYLI [Peptide E48]	1080
YLRGNLAESKCYLITVTPVYADGP [Peptide E49]	1540
CYLITVTPVYADGPGSPESIKAYL [Peptide E50]	1260
ADGPGSPESIKAYLKQAPPSKGPT [Peptide E51]	1190
KAYLKQAPPSKGPTVRTKKVGKNE [Peptide E52]	1820
KGPTVRTKKVGKNEAVLEWDQLPV [Peptide E53]	1640
GKNEAVLEWDQLPVDVQNGFIRNY [Peptide E54]	1310
QLPVDVQNGFIRNYTIFYRTIIGN [Peptide E55]	4360
IRNYTIFYRTIIGNETAVNVDSSH [Peptide E56]	1640
IIGNETAVNVDSSHTEYTLSSLTS [Peptide E57]	1230
DSSHTEYTLSSLTSDTLYMVRMAA [Peptide E58]	1350
RMAAYTDEGGKDGPEFTFTTPKFA [Peptide E60]	1450
KDGPEFTFTTPKFAQGEIEAIVVP [Peptide E61]	1390
PKFAQGEIEAIVVPVCLAFLLTTL [Peptide E62]	2790
IVVPVCLAFLLTTLLGVLFCFNKR [Peptide E63]	4520
LTTLLGVLFCFNKRDLIKKHIWPN [Peptide E64]	4500
FNKRDLIKKHIWPNVPDPSKSHIA [Peptide E65]	5740
IWPNVPDPSKSHIAQWSPHTPPRH [Peptide E66]	1200
SHIAQWSPHTPPRHNFNSKDQMYS [Peptide E67]	1200
PPRHNFNSKDQMYSDGNFTDVSVV [Peptide E68]	1230
QMYSDGNFTDVSVVEIEANDKKPF [Peptide E69]	1190

Binder	Counts/minute bound [counts/minute]
VSVVEIEANDKKPFPEDLKSLDLF [Peptide E70]	1300
KKPFPEDLKSLDLFKKEKINTEGH [Peptide E71]	2690
LDLFKKEKINTEGHSSGIGGSSCM [Peptide E72]	1440
TEGHSSGIGGSSCMSSSRPSISSS [Peptide E73]	1060
SSCMSSSRPSISSSDENESSQNTS [Peptide E74]	1130
ISSSDENESSQNTSSTVQYSTVVH [Peptide E75]	1120
QNTSSTVQYSTVVHSGYRHQVPSV [Peptide E76]	1200
TVVHSGYRHQVPSVQVFSRSESTQ [Peptide E77]	1250
VPSVQVFSRSESTQPLLDSEERPE [Peptide E78]	1230
ESTQPLLDSEERPEDLQLVDHVDG [Peptide E79]	1380
ERPEDLQLVDHVDGGDGILPRQQY [Peptide E80]	1210
HVDGGDGILPRQQYFKQNCSQHES [Peptide E81]	1100
RQQYFKQNCSQHESSPDISHFERS [Peptide E82]	1090
QHESSPDISHFERSKQVSSVNEED [Peptide E83]	1250
FERSKQVSSVNEEDFVRLKQQISD [Peptide E84]	1020
NEEDFVRLKQQISDHISQSCGSGQ [Peptide E85]	1110
QISDHISQSCGSGQMKMFQEVSAA [Peptide E86]	1240
GSGQMKMFQEVSAADAFGPGTEGQ [Peptide E87]	1000
VSAADAFGPGTEGQVERFETVGME [Peptide E88]	1090
TEGQVERFETVGMEAATDEGMPKS [Peptide E89]	1130
VGMEAATDEGMPKSYLPQTVRQGG [Peptide E90]	1380
MPKSYLPQTVRQGGYMPQ [Peptide E91]	1230
